# Numbering of substitutions follows the chain as printed.
# B1: BMS3h-202 (other)
# VH: EVQLLESGGGLVQPGGSLRLSCAASGFTFPTAEMVWVRQAPGKGLEWVSSISASGGSTYYADSVKGRFTISRDNSKNTLYLQMNSLRAEDTAVYYCAKEPVSYVATFDYWGQGTLVTVSS
# notes: domain antibody (dAb): single human VH domain
# B2: BMS3h-43 (other)
# VH: EVQLLESGGGLVQPGGSLRLSCTASGFTFNMYEMSWVRQAPGKGLEWVSGISRRGFTTYYADSVKGRFTISRDNSKNTLYLQMNSLRAEDTAVYYCAKEPITYAMRYARFDYWGQGTLVTVSS
# notes: as for B1
# B3: BMS3h-107 (other)
# VH: EVQLLESGGGLVQPGGSLRLSCAASGFTFSGYDMQWVRQAPGKGLEWVSTISASGVFTYYADSVKGRFTTSRDNSKNTLYLQMNSLRAEDTAVYYCAKYPNRFALNNFDYWGQGTLVTVSS
# notes: as for B1
# B4: BMS3h-131 (other)
# VL: DIQMTQSPSSLSASVGDRVTITCRANSSILWALAWYQQKPGKAPKLLIESSSGLQSGVPSRFSGSGSGTDFTLTISSLQPEDFATYYCVQNAGWPGTFGQGTKVEIKR
# notes: domain antibody (dAb): single human V kappa domain
# B5: BMS3h-197 (other)
# VH: EVQLLESGGGLVQPGGSLRLSCAASGFTFGSAAMDWVRQAPGKGLEWVSSINDMGSNTYYADSVKGRFTISRDNSKNTLYLQMNSLRAEDTAVYYCAKQGGRFDYWGQGTLVTVSS
# notes: as for B1
# B6: BMS3h-106 (other)
# VH: EVQLLESGGGLVQPGGSLRLSCAASGFTFSTYHMQWVRQAPGKGLEWVSMIDADGLGTYYADSVKGRFTISRDNSKNTLYLQMNSLRAEDTAVYYCAKPGPQFGQFDYWGQGTLVTVSS
# notes: as for B1
# B7: BMS3h-38 (other)
# VH: EVQLLESGGGLVQPGGSLRLSCAASGFTFEEEEMIWVRQAPGKGLEWVSAISGSGGSTYYADSVKGRFTISRDNSKNTLYLQMNSLRAEDTAVYYCAKEPFRFDYWGQGTLVTVSS
# notes: as for B1
# B8: BMS3h-37 (other)
# VH: B7 VH with E31W, E32Y, I35Q, S54D, G56Y, S57R, P100L, F101G, R102Y
# notes: as for B1
# B9: BMS3h-41 (other)
# VH: B7 VH with E30T, E32Y, A50S, S54N, G56A, S57N, F101L
# notes: as for B1
# B10: BMS3h-56 (other)
# VH: EVQLLESGGGLVQPGGSLRLSCAASGFTFRDYEMWWVRQAPGKGLERVSAINPQGTRTYYADSVKGRFTISRDNSKNTLYLQMNSLRAEDTAVYYCAKLPFIFDYWGQGTLVTVSS
# notes: as for B1
# B11: BMS3h-198 (other)
# VH: B7 VH with E30A, E31G, E32Y, I35W, W47R, N74D, E99D, F101Y, R102S
# notes: as for B1
# B12: BMS3h-202 (other)
# VH: B1 VH
# B13: BMS3h-202-5 (other)
# VH: B1 VH with V35L
# B14: BMS3h-202-10 (other)
# VH: B1 VH with V35L, S102Y
# B15: BMS3h-202-11 (other)
# VH: B1 VH with V35L, Q39K, T91A
# B16: BMS3h-202-1 (other)
# VH: B1 VH with V35L, Q39K
# B17: BMS3h-198 (other)
# VH: B7 VH with E30A, E31G, E32Y, I35W, W47R, N74D, E99D, F101Y, R102S
# B18: BMS3h-217 (other)
# VL: DIQMTQSPSSLSASVGDRVTITCRASHFIGTLLSWYQQKPGKAPKLLITYGSLLQSGVPSRFSGSGSGTDFTLTISSLQPEDFATYYCGQGVLWPATFGQGTKVEIKR
# B19: BMS3h-217-16 (other)
# VL: B18 VL with G41R, A96P
# B20: BMS3h-217-15 (other)
# VL: B18 VL with S12Y, A25V, T74S, A96P, R108Q
# B21: BMS3h-217-8 (other)
# VL: B18 VL with Q38H
# B22: BMS3h-217-6 (other)
# VL: B18 VL with P44T, A96P
# B23: BMS3h-217-30 (other)
# VL: B18 VL with Q38L, L53W
# B24: BMS3h-217-17 (other)
# VL: B18 VL with M4I, T5I, A96P
# B25: BMS3h-217-31 (other)
# VL: B18 VL with S67F, G91E
# B26: BMS3h-217-23 (other)
# VL: B18 VL with T31S, Q38V, K103T
# B27: BMS3h-217-2305 (other)
# VL: B18 VL with T31S, Q38V, Y50W, G51A, L53Y, K103T
# B28: BMS3h-217-2 (other)
# VL: B18 VL with G41R, Q79H, A96P
# B29: BMS3h-217-14 (other)
# VL: B18 VL with M4L, P44T, A96P
# B30: BMS3h-217-7 (other)
# VL: B18 VL with T31S, Q38H
# B31: BMS3h-217-1 (other)
# VL: B18 VL with D1N, S34T, Q38H
# B32: BMS3h-217-9 (other)
# VL: B18 VL with Q38H, L53M
# B33: BMS3h-193-25 (other)
# VL: DIQMTQSPSSLSASVGDRVTITCRASQTIERRLNWYQQKPGKAPRLLIYLATRLQSGVPSRFSGSGSGTDFTLTISSLQPEDFATYYCHQYESPPLTFGQGTKVEIKR
# B34: BMS3h-217-5 (other)
# VL: B18 VL with S10F, G30A, A96P
# B35: BMS3h-217-4 (other)
# VL: B18 VL with G30A, A96P
# B36: BMS3h-274 (other)
# VH: EVQLLESGGGLVQPGGSLRLSCAASGFTFDSYAMGWARQAPGKGLEWVSAIGAKGLSTYYADSVKGRFTISRDNSKNTLYLQMNSLRAEDTAVYYCAKAARGKFDYWGQGTLVTVSS
# Molecular target: T1, biotinylated human CD40 (BMS) (human, UniProt P25942 21-193, limits assumed, biotinylated (sites not given))
# T1 construct: Ligand immobilised on the streptavidin BIAcore chip
# Assay: BIAcore SPR, immobilised biotinylated human CD40, 1:1 fit;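 note: dAbs passed as doubling dilutions over CD40 chip at 25 °C in HBS-EP running buffer, 300 s dissociation, traces double-referenced against blank flow cell and buffer injection, global Langmuir fit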
# Procedure: A BIAcore™ 3000 instrument (GE Healthcare) was used to analyze the binding kinetics of CD40-specific dAbs to CD40. […] A second flow cell without any ligand immobilized served as a reference flow-cell for inline referencing. An appropriate doubling dilution series of each dAb to be analyzed was prepared in HBS-EP buffer (0.01 M HEPES pH 7.4 with 0.15 M NaCl, 3 mM EDTA and 0.005% v/v Surfactant P20, GE Healthcare). One hundred and eighty microlitres of each dAb were injected in duplicate using the instrument's KINJECT function. Each dAb was injected across the CD40-immobilised and reference flow-cells in series with inline subtraction of the signal from the reference cell. The experiment was performed at 25° C. and a flow rate of 30 μl/min of HBS-EP. After each injection had been completed, the dAb was allowed to dissociate from the ligand in buffer for 300 s before regeneration with a 10 μl injection of 10 mM glycine pH 2.0. A reference injection of HBS-EP buffer blank (containing no analyte) was also injected under the same conditions, to serve as a second reference for subtraction from each analyte trace. BIAevaluation 4.1 software (GE Healthcare) was used to subtract both the reference flow-cell trace and the buffer blank trace from each analyte trace. The same software was used to perform a simultaneous, global fit of a 1:1 (Langmuir) kinetic model to the association and dissociation phases of the analyte dilution series traces.
Binder,Kd,koff,kon
B1,2000 nM,0.0035 s⁻¹,1700 M⁻¹ s⁻¹
B2,2100 nM,0.0031 s⁻¹,1400 M⁻¹ s⁻¹
B3,850 nM,0.17 s⁻¹,200000 M⁻¹ s⁻¹
B4,930 nM,0.022 s⁻¹,24000 M⁻¹ s⁻¹
B5,180 nM,0.014 s⁻¹,81000 M⁻¹ s⁻¹
B6,350 nM,0.046 s⁻¹,130000 M⁻¹ s⁻¹
B7,300 nM,0.0062 s⁻¹,21000 M⁻¹ s⁻¹
B8,190 nM,0.0036 s⁻¹,19000 M⁻¹ s⁻¹
B9,840 nM,0.0083 s⁻¹,9900 M⁻¹ s⁻¹
B10,180 nM,0.004 s⁻¹,23000 M⁻¹ s⁻¹
B11,240 nM,0.00038 s⁻¹,1600 M⁻¹ s⁻¹

# Molecular target: human CD40 (human, UniProt P25942 21-277)
# Assay: cell-based or functional assay
Binder,hIZCD40L-driven Human B Cell Proliferation EC50,CHO-hCD40L-driven DC Activation IL-12 EC50
B12,6400 nM,
B13,6500 nM,
B14,289 nM,
B15,201 nM,
B16,192 nM,
B17,554 nM,
B18,3200 nM,
B19,5 nM,1120 nM
B20,47 nM,
B21,33 nM,
B22,11 nM,
B23,80 nM,> 7700 nM
B24,1950 nM,
B25,> 700 nM,
B26,16 nM,
B27,11 nM,
B28,8 nM,335 nM
B29,26 nM,
B30,220 nM,
B31,45 nM,
B32,380 nM,
B33,303 nM,

# Molecular target: T2, Macaca fascicularis CD40 (Macaca fascicularis (cynomolgus monkey), UniProt P25942 21-277 (human entry))
# T2 chain: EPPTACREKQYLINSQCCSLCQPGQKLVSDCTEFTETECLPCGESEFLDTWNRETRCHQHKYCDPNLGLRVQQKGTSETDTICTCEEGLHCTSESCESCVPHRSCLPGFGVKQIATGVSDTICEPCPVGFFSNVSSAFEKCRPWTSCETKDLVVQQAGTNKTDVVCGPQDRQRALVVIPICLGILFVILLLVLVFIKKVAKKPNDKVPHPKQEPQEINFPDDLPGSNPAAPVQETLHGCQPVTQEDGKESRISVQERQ
# Assay: cell-based or functional assay
row,Binder,hIZCD40L-driven Cyno B Cell Proliferation EC50
1,B12,> 7000 nM
2,B16,> 7000 nM
3,B17,> 7000 nM
4,B19,7 nM
5,B20,20 nM
6,B34,15 nM
7,B21,14 nM
8,B22,10 nM
9,B26,15 nM
10,B28,7 nM
11,B29,8 nM
12,B31,35 nM
13,B35,27 nM
14,B36,> 7000 nM
15,B33,2200 nM

# From patent US20200199244A1 (published 2020)
